Laboratory results as given in patent US11932880B2, “Enzyme and method for assaying pentosidine using same” (priority 2018, dated 2024).

B1: PenOX2: protein having the amino acid sequence of SEQ ID NO: 4, pentosidine oxidase from Sarocladium sp., gene g10122; recombinant from Aspergillus sojae (protein, listed as Sarocladium sp.)
chain: MFTPKAWIPLLALSREVFSNPTSASHSISFHGLLGVSSESVHNIHLTYGDAFPHGDFRVVFGDCGMTSEDELHHEVASLSTKMESAPDRLVWLVPKDVRENGCLHAFSEGVLLGRSEPVAFTEPLRKRESLSEIGDSDGLWFSGIRYLQSSNLTSVKAAEAKEKKIGIVGGGISGLMTSLLLTSVGMTNWHIIEATERVGGRIRTKYMNGTSPDDYQYQEMGPMRFPVEVKYNDTNETLPIQDHKMVFQLAEVLNEMNGNDTDLAVKFIPWTQNNPNTPANSRGYRLPDGRIPTAAQIAQNPSILPAAANASDPQDAELGKESLERLSDLTPERMRNISANIFKAHRDAIDRGLFHWSEAAYLRYQLGLDDDTVDFVAASDNYPMFPDWWHAVYFAATKWLTIDKGLDSLSRAFVPHVKDKITYGRKIEAMQWNESTSKISLSWRESPLAAAKSDEYDYAVVAVPFSKVRLWKRPAYSNLLTRAIGKLNYEQACKVALLYETRFWEHQEIPIFGGCGSVDIPGIGGVCYPSYEINSTRPGVILSSYITGTEARSVVALSEEDHVAMVQRAMVEVHGPMADEQWTGIYDRLCWEVDENAAGGWASPTVGQQELFIPAYHKTELNTIFIGEHTSITHGWIFSALESSVRGTTQLLLDLGLVDEAKQIVETWMARWITV
B2: PenOX1: protein having the amino acid sequence of SEQ ID NO: 2, pentosidine oxidase from Sarocladium sp., gene g4462 (protein, listed as Sarocladium sp.)
chain: MKSPSLAVAGLLLGSSSLSHATQLRIETRKSLNSRIANVHIDVDAPVAHQVVFTYGPCDSESQENAHHVIAQSQKLEGRKPHRLIWTMPKDLHPDDCISAWGESGDLLGRSVPQKVAHKEMRRRKRDDSDYSIPMNSSSGIDVYGPWFDGVALLEKSDNHNVDVEAAKAKEIAIVGAGMAGLTTYFILSEAGLSNLTILEASGRLGGRVRTEYLSGGPRDHSYAEMGPMRIPYQARFGDKAYNISDQAIFFRLVEKVNERNKKLGNTKDLINLIPFIQSSPNGLAYYQGNKLENGLPPTQADVAADPALGNESPEIPESAQELAAQLQRALPNAEFLELMATNFWQAHAEFLENQGPAGLPGDQWSEFAFLVNYLNATVFDANAVTGGYDWHSSLDRSSLVGMNLLPNAFHPLVDDITKFNAKVEKVQLDEKTSRLKLHWRANYTDPELESQSFDYAILSPTMPAVQKLRLPGLPFAMRNAVDSMPYASACKVALEYRTRFWEKFDNPIYGSCSTSTDIPGIGSVCYPSSNINGSGPASLLASYEIGRPYGAEWAGIPEEQHVQYVIDAMIDIHGEVARREFTGKCKRKCWALDEFSNGGWASPTVGNHETYLPSFFETHSHMIFVGEHTSYTHAWIASAIESAVRGSVQLLLELGLIDEAKDVVNTWMARWISVVSDLSKAVVSGASA

Key:
[1] = Range of stable pH of PenOX2 (residual activity after 25° C., 20 hours); assay type: physicochemical
Protocol: (§1) 600 μL of an arbitrary buffer, 400 μL of deionized water solution in which 3.99 U/mL peroxidase, 1.8 mM 4-aminoantipyrine and 2 mM TOOS were dissolved, and 150 μL of deionized water were incubated at an arbitrary temperature for 10 minutes. Then, 50 μL of the enzyme solution having been stored on ice and 400 μL of a solution of 4 mM pentosidine dissolved in a 100 mM potassium phosphate buffer (pH 8.0) having been incubated at an arbitrary temperature for 10 minutes were added thereto, followed by stirring and reacting at an arbitrary temperature for 3 minutes. A change over time of A555 during the reaction was measured using a spectrophotometer (U-3900, manufactured by Hitachi High-Tech Science Corporation). An elapsed time from the start of the measurement of 20 seconds to 60 seconds—A555 change was regarded as an activity value.
Treatments were performed respectively using, as a buffer solution, a 100 mM citric acid-200 mM potassium phosphate buffer (pH 3.0 to 6.5), a 200 mM potassium phosphate buffer (pH 6.5 to 8.0) and a 200 mM glycine buffer (pH 8.0 to 10.0) at respective pH and at 25° C. for 20 hours, and then, residual activity of PenOX2 was measured.

[2] = Pentosidine quantitative test (DA-67/peroxidase, A658, Bio Majesty JCA-BM1650); assay type: biochemical; settings: 0.2-4.0 μM pentosidine solutions, 37° C., 5 minutes; ΔA658 correlated with final pentosidine concentration (FIG. 4)
Protocol: The following reagents were prepared to measure pentosidine by using Bio Majesty JCA-BM1650 (manufactured by JEOL Ltd.).
0.2 μM, 0.4 μM, 0.6 μM, 1.0 μM, 2.0 μM or 4.0 μM pentosidine solution
25 μL of the sample was added to 50 μL of the first reagent, and the resultant was incubated at 37° C. for 5 minutes. Then, 25 μL of the second reagent was added thereto to allow a pentosidine oxidation reaction owing to PenOX2 and a detection reaction for hydrogen peroxide generated through the reaction to proceed at 37° C. for 5 minutes.
In the detection reaction for hydrogen peroxide, simultaneously with consumption of […], DA-67 is oxidized into methylene blue to present the color, and the absorbance (A658) is increased. As an example, the relationship between the elapsed time after the mixture of the sample (4.0 μM pentosidine solution) and the first reagent and the absorbance (A658) is shown in FIG. 3. It was confirmed that A658 increased immediately after the addition of the second reagent containing PenOX2.
Subsequently, an A658 increment (AA) caused by the oxidation of pentosidine was calculated in accordance with the following equation: ΔA=(absorbance 5 min after addition of second reagent)−(absorbance immediately before addition of second reagent×0.75)

[3] = Measurement of L-arginine oxidation activity of hypha extract; assay type: biochemical; settings: intracellular recombinant PenOX2 after anion exchange and ultrafiltration concentration
Protocol: 200 μL of each crude enzyme solution was mixed with a 380 μL of 150 mM potassium phosphate buffer solution (pH 7.0) in which 7.1 U/mL peroxidase, 0.70 mM 4-aminoantipyrine and 0.79 mM TOOS were dissolved. The resultant mixture was incubated at 37° C. for 5 minutes, and 20 μL of a 60 mM L-arginine solution was added thereto, followed by stirring, and reacting at 37° C. for 5 minutes. A change over time of A555 during the reaction was measured using a spectrophotometer (U-3900, manufactured by Hitachi High-Tech Science Corporation). A control experiment was performed by adding 20 μL of ion-exchanged water instead of 20 μL of the 60 mM L-arginine solution. An amount of the enzyme generating 1 μmol of hydrogen peroxide per minute at 37° C. was defined as one unit (U), and the activity was calculated in accordance with the following equation: Activity (U/mL)={(ΔAs−ΔA0)×0.6×df}/(39.2×0.5×0.2) • ΔAs: change of A555 per minute of reaction solution • ΔA0: change of A555 per minute of control experiment • 39.2: millimolar absorbance coefficient (mM^−1·cm^−1) of quinoneimine pigment generated through reaction • 0.5: molar number of quinoneimine pigment generated by 1 mol of hydrogen peroxide • 0.6: volume (mL) of whole reaction solution • df: dilution factor • 0.2: volume (mL) of enzyme solution

[4] = Enzyme activity measurement with pentosidine as substrate (A555 change, U/mL); assay type: biochemical
Protocol: as §1
Besides, an amount of the enzyme generating 1 μmol of hydrogen peroxide per minute at 37° C. was defined as one unite (U), and the activity was calculated in accordance with the following equation. Activity (U/mL)={(ΔAs−ΔA0)×1.6×df}/(39.2×0.5×0.05) • ΔAs: change of A555 per minute of reaction solution • ΔA0: change of A555 per minute of control experiment • 1.6: volume (mL) of whole reaction solution • df: dilution factor • 39.2: millimolar absorbance coefficient (mM^−1-cm-1) of quinoneimine pigment generated through reaction • 0.5: molar number of quinoneimine pigment generated by 1 mol of hydrogen peroxide • 0.05: volume (mL) of enzyme solution
A 50 mM citric acid-100 mM potassium phosphate buffer (pH 4.0 to 7.5, a final concentration), a potassium phosphate buffer (pH 6.5 to 8.0, a final concentration of 100 mM), and a glycine buffer (pH 8.0 to 11.0, a final concentration of 100 mM) were prepared, and these were used to perform an enzymatic reaction at respective pH at a temperature of 37° C. […] Therefore, it was determined that the optimum pH of PenOX2 is pH 6.5 to 8.0, and that the most suitable optimum pH is pH 7.5.
A potassium phosphate buffer (pH 7.5) having a final concentration of 50 mM was used to perform the activity measurement of PenOX2 at various temperatures. The highest activity was obtained around 50° C., and a temperature range for attaining 80% or more of this highest activity was 37° C. to 50° C. Therefore, it was determined that the range of the optimum temperature of PenOX2 is 37° C. to 50° C.
The above-described activity measurement method was employed to perform activity measurement using a potassium phosphate buffer (final pH in the activity measurement: pH 7.5, final concentration of 50 mM) at 37° C., and an activity value (U/mL) was obtained by using the aforementioned equation.
As described above, both PenOX1 and PenOX2 had the pentosidine oxidase activity. […] Subsequently, the following three enzymes were purchased, and the above-described activity measurement method was employed for confirming their pentosidine oxidase activity using a potassium phosphate buffer (pH 7.5, final concentration of 100 mM) at 37° C. The amino acid sequence homologies with PenOX1 and PenOX2 and the pentosidine oxidase activities of these enzymes were as follows.

[5] = Thermal stability of PenOX2 (residual activity after 10 minutes treatment); assay type: physicochemical; settings: treated 10 minutes at respective temperatures; residual activity measured at pH 7.5, 37° C.; FIG. 9
Protocol: as §1
Residual activity obtained when the enzyme solution was treated for 10 minutes at respective temperatures was evaluated by performing the activity measurement described above by using a potassium phosphate buffer (final pH in the activity measurement: pH 7.5, final concentration of 100 mM) at 37° C.

Row | Molecule | residual activity relative to PenOX2 stored at 4° C. ([1]; pH range 4.0 to 9.0, FIG. 10) [%] | residual activity relative to PenOX2 stored at 4° C. ([1]; pH range 4.5 to 7.5, FIG. 10) [%] | pentosidine oxidation activity [2] | L-arginine oxidation activity of concentrate of purified PenOX2 solution [3] [U/mL] | pH of highest activity (most suitable optimum pH) ([4]; 37° C., FIG. 7) [pH] | activity relative to highest activity ([4]; at 37° C. to 50° C., pH 7.5) [%] | activity relative to value in potassium phosphate buffer of around pH 7.5 ([4]; at pH 6.5 to 8.0, 37° C.) [%] | Km ([4]; pH 7.5, 50 mM potassium phosphate, 37° C., Lineweaver-Burk plot, FIG. 11) [µM] | specific activity against pentosidine ([4]; pH 7.5, 50 mM, 37° C., protein by Bradford method) [U/mg] | activity value against pentosidine ([4]; potassium phosphate buffer pH 7.5, 50 mM, 37° C.) [U/mL] | temperature of highest activity ([4]; potassium phosphate buffer pH 7.5, 50 mM, FIG. 8) | temperature up to which enzyme was stable [5]
1 | B1 | ≥ 60 | ≥ 90 | exhibits the pentosidine oxidation activity | 24 | 7.5 | ≥ 80 | ≥ 70 | 140 | 29.1 | 7.8 | around 50 °C | about 30 °C
2 | B2 |  |  | similarly exhibited pentosidine oxidation activity |  |  |  |  |  |  |  |  | 
